In PMC9646764 (2022):

B1: mTFPI-Fc (Fc-tagged mouse TFPI) (Fc fusion)
chain: LSEEADDTDSELGSMKPLHTFCAMKADDGPCKAMIRSYFFNMYTHQCEEFIYGGCEGNENRFDTLEECKKTCIPGYEKTAVKAASGAERPDFCFLEEDPGLCRGYMKRYLYNNQTKQCERFVYGGCLGNRNNFETLDECKKICENPVHSPSPVNEVQMSDYVTDGNTVTDRSTVNNIVVPQSPKVPRRR
B2: Chicken TFPI-Fc (Fc fusion)
chain: TDDSDGEEEDVLGVPLPPLKLGHSDCALKADEGPCKAIHVRFYFNIQSRECEIFEYGGCHGNANNFLTLEECQNKCVVTELPLEVMLAKNEREKPNFCYQEKDPGICRGFFSRYFYNKETKICEIFKYGGCLGNQNNFKSLEECQTTCQGNPNLLSVAPDEEHPNHMNSSSPEEERNQFPGIVE

How the values were obtained:
Assay in all cases: BLI
[1] = target: TcdB10.1_(1285-1804) ( | Clostridioides difficile)
[2] = target: B2
[3] = target: TFPI-Fc (human IgG-Fc-tagged TFPI without the GPI anchor) (human, UniProt P10646 29-209)
[4] = target: B2
[5] = target: B1

Chain of TFPI-Fc (human IgG-Fc-tagged TFPI without the GPI anchor) (P10646 29-209): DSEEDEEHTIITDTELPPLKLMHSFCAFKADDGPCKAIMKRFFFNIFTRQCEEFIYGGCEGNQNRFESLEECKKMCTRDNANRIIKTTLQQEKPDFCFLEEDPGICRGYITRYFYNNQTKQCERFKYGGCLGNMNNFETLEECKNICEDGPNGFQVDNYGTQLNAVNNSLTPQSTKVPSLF

| Binder | Kd [1] | koff [1] | Kd [2] | koff [3] | koff [4] | koff [5] |
| --- | --- | --- | --- | --- | --- | --- |
| B1 | 465 nM | 0.00637 s⁻¹ |  |  |  |  |
| B2 | 70.5 nM | 0.006 s⁻¹ |  |  |  |  |
| TcdB4.2_(1286-1805) (domain or fragment) TNIRISLDSNTRSFIVPVITTEYIREKLSYSFYGSGGTYALSLSQYNMNINIELNENDTWVIDVDNVVRDVTIESDKIKKGDLIENILSKLSIEDNKIILDNHEINFSGTLNGGNGFVSLTFSILEGINAVIEVDLLSKSYKVLISGELKTLMANSNSVQQKIDYIGLNSELQKNIPYSFMDDEGKENGFINCFTKEGLFVSELSDVVLIIKVYMDNSKPPFGYYSNDLKDVKVITKDDVIIITGYYLKDDIKISLSFTIQDKNTIKLNGVYLDENGVAEILKFMNKKGSTNTSDSLMSFLESMNIKSIFIKSLKSNAKLILDTNFIISGTTFIGQFEFICDKDNNIQPYFIKFNTLETKYTLYVGNRQNMIVEPNYNLDDSGDISSTVINFSQKYLYGIDSCVNKVVISPGIYTDEINITPVHEANNTYPEVIVLDTNYISEKINININDLSIRYVWSNDGSDFILMSTDEENKVSQVKIRFTNVFKGNTISDKISFNFSDKQDISINKIISTFTPSYY |  |  | 336 nM | 0.00708 s⁻¹ | 0.00885 s⁻¹ | 0.00344 s⁻¹ |
